Patent US12084487B2, “Nanoparticles having molecules that bind or block PD-L1 and uses in treating cancer” (Emory University, priority 2016, dated 2024)

Molecular target: T1, PD-L1 on tumor cell surfaces (mouse pancreatic cancer KC cells) (Mus musculus, UniProt Q9EP73)
T1 construct: endogenous in cells; host or cells: KC mouse pancreatic cancer cells (Pdx1-Cre; LSL-K-rasG12D derived)
Test: Competition-binding assay of FITC labeled PD-1 peptides with anti-mouse PD-L1 antibody on KC cells
Settings: for fluorescence intensity on cells: FITC labeled peptide 2 μg/ml
Description: Two (2) μg of FITC labeled PD-1 peptides were mixed with 0, 5, 20 μg of anti-mouse PD-L1 antibody and then incubated with the KC cells for 2 hours. Unbound peptides and antibodies were washed off. Relative fluorescent intensities of KC cells were measured for each group.
Next, a competition-binding assay was performed to determine specificity of the PD-1 like peptides binding to PD-L1 on tumor cell surfaces. […] The peptides were then added to tissue culture plates with mouse pancreatic cancer KC cells.

T1 sequence (Q9EP73 19-290): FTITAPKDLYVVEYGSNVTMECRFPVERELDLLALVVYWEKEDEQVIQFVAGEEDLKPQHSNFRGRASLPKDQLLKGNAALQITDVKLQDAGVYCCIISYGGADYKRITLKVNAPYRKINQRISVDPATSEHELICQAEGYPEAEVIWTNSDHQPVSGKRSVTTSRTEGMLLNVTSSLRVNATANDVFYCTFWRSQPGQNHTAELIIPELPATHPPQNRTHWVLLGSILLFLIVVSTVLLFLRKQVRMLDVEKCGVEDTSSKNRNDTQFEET

fluorescence intensity on cells | binding to cells with anti-PD-L1 antibody added (20 μg/ml anti-PD-L1 antibody) | Sequence
High levels of fluorescence intensity | – | NWNRLSPSNQTEKQAACGAISLHPKAKIEESPGHHHH [PD-1(Lin)]
High levels of fluorescence intensity | reduced | NWNRLSPSNQTEKQAAPHHHHCGAISLHPKAKIEE [PD-1 (Y)]
